Results taken from patent US20220016218A1 (YISSUM RESEARCH DEVELOPMENT COMPANY OF THE HEBREW …, published 2022).
*1 amine or outer side, *2 acyl side, *3 side chain or, on linkers, in order; H or OH if unused. Where a SMILES comes first, the peptide text is derived from it. [ ]: non-standard residue; d: D form. Arg(ω,ω'-(C6H13OCO)2) = CCCCCCOC(=O)N=C(NCCC[C@H](N)C(=O)O)NC(=O)OCCCCCC; X1 = CCCCCCOC(=O)N=C(NCCC[C@@H](N[*:1])C(=O)[*:2])NC(=O)OCCCCCC; dNMeR = CN[C@H](CCCNC(=N)N)C(=O)O; NMeD = CN[C@@H](CC(=O)O)C(=O)O; NMeV = CN[C@H](C(=O)O)C(C)C; NMeA = CN[C@@H](C)C(=O)O; dNMeA = CN[C@H](C)C(=O)O

Experiments:
[1] = shake flask in triplicate (rotator; centrifuged); both phases by HPLC-MS/MS; mebendazole reference; conditions: PBS pH 7.4, mutually saturated, not stated C, DMSO stock (small aliquot)
[2] = target: T1, human αvβ6-Integrin (human, UniProt P06756 31-992; P18564 22-707, limits assumed); test: solid-phase competition assay: soluble human αvβ6 on coated LAP (TGF-β)
T1 construct: Soluble integrin bought from R&D
T1 sequence (P06756 31-992 limits assumed, chain 1 of 2): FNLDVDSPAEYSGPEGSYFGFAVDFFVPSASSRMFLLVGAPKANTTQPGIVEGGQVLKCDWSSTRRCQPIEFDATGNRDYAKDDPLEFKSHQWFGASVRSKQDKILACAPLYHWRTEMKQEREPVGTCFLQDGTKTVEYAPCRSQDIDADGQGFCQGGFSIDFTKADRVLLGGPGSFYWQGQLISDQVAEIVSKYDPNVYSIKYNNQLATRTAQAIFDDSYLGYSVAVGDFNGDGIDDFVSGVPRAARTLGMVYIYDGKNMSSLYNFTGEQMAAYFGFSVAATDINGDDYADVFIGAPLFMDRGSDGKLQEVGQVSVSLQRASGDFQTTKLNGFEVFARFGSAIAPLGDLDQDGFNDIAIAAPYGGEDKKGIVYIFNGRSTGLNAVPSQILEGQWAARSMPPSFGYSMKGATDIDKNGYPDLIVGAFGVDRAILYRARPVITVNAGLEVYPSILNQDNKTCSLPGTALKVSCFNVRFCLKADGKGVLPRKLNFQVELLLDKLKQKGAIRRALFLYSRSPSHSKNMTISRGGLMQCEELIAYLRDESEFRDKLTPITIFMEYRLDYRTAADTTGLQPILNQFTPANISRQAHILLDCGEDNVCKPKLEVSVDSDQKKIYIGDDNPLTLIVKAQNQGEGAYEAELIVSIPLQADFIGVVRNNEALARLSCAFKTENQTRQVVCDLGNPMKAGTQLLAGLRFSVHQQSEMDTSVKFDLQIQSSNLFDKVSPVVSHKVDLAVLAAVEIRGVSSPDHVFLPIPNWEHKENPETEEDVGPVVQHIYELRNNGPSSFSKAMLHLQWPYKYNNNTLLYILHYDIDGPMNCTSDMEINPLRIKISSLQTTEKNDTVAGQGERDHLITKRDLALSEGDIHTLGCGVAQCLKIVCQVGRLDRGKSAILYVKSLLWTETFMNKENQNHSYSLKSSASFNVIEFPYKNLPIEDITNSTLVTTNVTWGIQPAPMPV
T1 sequence (P18564 22-707 limits assumed, chain 2 of 2): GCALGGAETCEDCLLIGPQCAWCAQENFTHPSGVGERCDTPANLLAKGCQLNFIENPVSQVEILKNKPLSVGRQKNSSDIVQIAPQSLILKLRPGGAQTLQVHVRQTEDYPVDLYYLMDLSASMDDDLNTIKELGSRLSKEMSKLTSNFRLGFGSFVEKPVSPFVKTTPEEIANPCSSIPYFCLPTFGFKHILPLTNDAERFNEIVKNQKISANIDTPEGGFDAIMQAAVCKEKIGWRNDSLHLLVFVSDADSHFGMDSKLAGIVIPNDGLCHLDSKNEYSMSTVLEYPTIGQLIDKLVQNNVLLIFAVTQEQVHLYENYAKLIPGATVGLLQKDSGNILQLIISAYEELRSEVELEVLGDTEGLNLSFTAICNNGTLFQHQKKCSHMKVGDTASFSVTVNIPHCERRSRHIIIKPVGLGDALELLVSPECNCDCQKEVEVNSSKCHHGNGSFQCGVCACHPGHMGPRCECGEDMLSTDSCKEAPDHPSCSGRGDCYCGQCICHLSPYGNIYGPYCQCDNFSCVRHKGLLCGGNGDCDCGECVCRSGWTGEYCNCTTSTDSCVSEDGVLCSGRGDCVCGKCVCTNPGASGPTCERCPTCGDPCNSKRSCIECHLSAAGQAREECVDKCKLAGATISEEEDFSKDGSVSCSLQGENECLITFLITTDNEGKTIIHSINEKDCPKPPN

[3] = target: T2, human αvβ3-integrin (human, UniProt P06756 31-992; P05106 27-718); test: solid-phase competition assay: soluble human αvβ3 on coated vitronectin
T2 construct: Soluble integrin bought from R&D; also called integrin subtype αvβ3; αvβ3 receptor
T2 sequence (P06756 31-992 limits assumed, chain 1 of 2): as the sequence (P06756 31-992 limits assumed, chain 1 of 2) above
T2 sequence (P05106 27-718 limits assumed, chain 2 of 2): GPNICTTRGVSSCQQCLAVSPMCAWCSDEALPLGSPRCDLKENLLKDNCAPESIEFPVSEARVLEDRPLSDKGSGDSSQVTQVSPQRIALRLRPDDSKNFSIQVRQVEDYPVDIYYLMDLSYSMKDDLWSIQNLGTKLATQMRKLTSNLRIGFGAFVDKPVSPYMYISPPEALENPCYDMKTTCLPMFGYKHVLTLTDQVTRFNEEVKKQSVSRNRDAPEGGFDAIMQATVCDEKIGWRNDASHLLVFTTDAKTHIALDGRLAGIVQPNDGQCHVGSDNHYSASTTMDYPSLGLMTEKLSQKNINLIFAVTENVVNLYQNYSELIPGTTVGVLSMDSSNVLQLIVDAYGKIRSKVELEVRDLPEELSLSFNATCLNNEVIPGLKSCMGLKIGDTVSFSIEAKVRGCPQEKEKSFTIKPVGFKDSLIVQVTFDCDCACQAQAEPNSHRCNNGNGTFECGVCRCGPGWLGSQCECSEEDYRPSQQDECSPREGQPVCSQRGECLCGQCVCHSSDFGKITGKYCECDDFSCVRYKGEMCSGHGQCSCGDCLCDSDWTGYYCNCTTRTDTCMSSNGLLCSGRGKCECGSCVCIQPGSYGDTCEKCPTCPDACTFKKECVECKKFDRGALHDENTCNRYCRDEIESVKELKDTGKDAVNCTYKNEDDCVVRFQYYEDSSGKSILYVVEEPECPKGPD

[4] = target: T3, human αvβ5-integrin (human, UniProt P06756 31-992; P18084 24-719, limits assumed); test: solid-phase competition assay: soluble human αvβ5 on coated vitronectin
T3 construct: Soluble integrin bought from Millipore
T3 sequence (P06756 31-992 limits assumed, chain 1 of 2): as the sequence (P06756 31-992 limits assumed, chain 1 of 2) above
T3 sequence (P18084 24-719 limits assumed, chain 2 of 2): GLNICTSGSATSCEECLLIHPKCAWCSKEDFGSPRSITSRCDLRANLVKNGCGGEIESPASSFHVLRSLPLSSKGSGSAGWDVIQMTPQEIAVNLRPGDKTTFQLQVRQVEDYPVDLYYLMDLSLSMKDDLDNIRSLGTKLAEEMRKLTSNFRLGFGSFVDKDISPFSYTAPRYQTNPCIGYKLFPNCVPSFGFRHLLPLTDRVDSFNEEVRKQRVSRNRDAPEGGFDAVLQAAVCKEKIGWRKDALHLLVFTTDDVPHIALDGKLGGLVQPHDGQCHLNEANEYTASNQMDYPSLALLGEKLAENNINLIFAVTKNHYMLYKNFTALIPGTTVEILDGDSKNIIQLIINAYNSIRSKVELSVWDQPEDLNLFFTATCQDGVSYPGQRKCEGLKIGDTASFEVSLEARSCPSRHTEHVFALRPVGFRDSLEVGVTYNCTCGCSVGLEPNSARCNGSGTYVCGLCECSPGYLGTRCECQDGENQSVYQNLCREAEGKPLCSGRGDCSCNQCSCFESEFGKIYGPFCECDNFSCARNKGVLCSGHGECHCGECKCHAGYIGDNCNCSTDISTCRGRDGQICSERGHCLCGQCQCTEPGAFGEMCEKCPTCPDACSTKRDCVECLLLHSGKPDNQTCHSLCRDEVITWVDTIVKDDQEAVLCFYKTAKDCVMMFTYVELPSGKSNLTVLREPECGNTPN

[5] = target: T4, human αvβ8-Integrin (human, UniProt P06756 31-992; P26012 43-684); test: solid-phase competition assay; value given for the internal standard
T4 construct: Soluble integrin bought from R&D
T4 sequence (P06756 31-992 limits assumed, chain 1 of 2): as the sequence (P06756 31-992 limits assumed, chain 1 of 2) above
T4 sequence (P26012 43-684 limits assumed, chain 2 of 2): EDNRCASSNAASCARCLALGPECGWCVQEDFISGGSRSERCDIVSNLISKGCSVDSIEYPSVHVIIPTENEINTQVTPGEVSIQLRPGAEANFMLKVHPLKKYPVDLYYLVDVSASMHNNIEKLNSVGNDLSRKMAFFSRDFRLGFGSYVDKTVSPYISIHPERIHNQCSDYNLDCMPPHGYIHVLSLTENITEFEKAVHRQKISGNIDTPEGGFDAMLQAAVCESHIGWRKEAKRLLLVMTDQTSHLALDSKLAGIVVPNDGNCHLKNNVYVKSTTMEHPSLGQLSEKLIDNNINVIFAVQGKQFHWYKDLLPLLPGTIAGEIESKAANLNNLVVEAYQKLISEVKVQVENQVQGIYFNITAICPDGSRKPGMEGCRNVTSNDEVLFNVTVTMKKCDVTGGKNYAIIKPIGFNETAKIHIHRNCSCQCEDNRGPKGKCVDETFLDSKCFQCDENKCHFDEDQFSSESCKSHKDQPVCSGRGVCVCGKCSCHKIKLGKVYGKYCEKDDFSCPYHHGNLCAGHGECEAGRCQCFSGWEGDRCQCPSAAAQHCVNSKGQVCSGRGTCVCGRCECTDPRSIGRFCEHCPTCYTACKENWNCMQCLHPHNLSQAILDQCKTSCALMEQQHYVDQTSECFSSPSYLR

[6] = target: T1, human αvβ6-Integrin; test: as above

CC(C)[C@H]1C(=O)N[C@@H](CCCNC(=N)N)C(=O)NCC(=O)N[C@@H](CC(=O)O)C(=O)N[C@H](Cc2ccccc2)C(=O)N1C
log D (1-octanol / PBS pH 7.4) [1]: <−1 log units

CC(C)[C@@H]1C(=O)N[C@@H](CCCNC(=N)N)C(=O)NCC(=O)N[C@@H](CC(=O)O)C(=O)N[C@@H](C)C(=O)N(C)[C@@H](C)C(=O)N1C
log D (1-octanol / PBS pH 7.4) [1]: <−1 log units

CC(C)C[C@@H]1NC(=O)[C@H](CC(=O)O)NC(=O)CNC(=O)[C@H](CCCNC(=N)N)NC(=O)[C@H](Cc2ccccc2)NC(=O)[C@@H]2CCCN2C(=O)[C@@H]2CCCN2C(=O)[C@H](CC(C)C)NC(=O)[C@H](C)NC1=O (cyclo(RGDLALPPF))
log D (1-octanol / PBS pH 7.4) [1]: −0.19 log units

CCCCCCOC(=O)NC(=N)NCCC[C@@H]1NC(=O)[C@@H](C(C)C)N(C)C(=O)[C@H](C)N(C)C(=O)[C@H](C)NC(=O)[C@H](CC(=O)OC)NC(=O)CNC1=O
log D (1-octanol / PBS pH 7.4) [1]: 1.85 log units

CCCCCCOC(=O)N=C(NCCC[C@@H]1NC(=O)[C@H](CC(C)C)NC(=O)CNC(=O)[C@@H]2CCCN2C(=O)[C@@H]2CCCN2C(=O)[C@H](CC(C)C)NC(=O)[C@H](CC(=O)O)NC(=O)CNC1=O)NC(=O)OCCCCCC (cyclo(LPPGL[Arg(ω,ω'-(C6H13OCO)2)]GD))
log D (1-octanol / PBS pH 7.4) [1]: >4.5 log units

CCCCCCOC(=O)N=C(NCCC[C@@H]1NC(=O)[C@H](C(C)C)N(C)C(=O)[C@@H](Cc2ccccc2)NC(=O)[C@H](CC(=O)O)NC(=O)CNC1=O)NC(=O)OCCCCCC
log D (1-octanol / PBS pH 7.4) [1]: 3.95 log units

CCCCCCOC(=O)N=C(NCCC[C@H]1NC(=O)[C@H](C(C)C)N(C)C(=O)[C@@H](C)N(C)C(=O)[C@@H](C)NC(=O)[C@@H](CC(=O)OC)NC(=O)CNC1=O)NC(=O)OCCCCCC (cyclo(G[dD](OMe)[dA][dNMeA][NMeV][X1]))
log D (1-octanol / PBS pH 7.4) [1]: >4.5 log units

CC(C)C[C@@H]1NC(=O)CNC(=O)[C@@H]2CCCN2C(=O)[C@@H]2CCCN2C(=O)[C@H](CC(C)C)NC(=O)[C@H](CC(=O)O)NC(=O)CNC(=O)[C@H](CCCNC(=N)N)NC1=O (cyclo(RGDLPPGL))
log D (1-octanol / PBS pH 7.4) [1]: <−1 log units

CCCCCCOC(=O)N=C(NCCC[C@@H]1NC(=O)[C@H](Cc2ccccc2)NC(=O)[C@@H]2CCCN2C(=O)[C@@H]2CCCN2C(=O)[C@H](CC(C)C)NC(=O)[C@H](C)NC(=O)[C@H](CC(C)C)NC(=O)[C@H](CC(=O)O)NC(=O)CNC1=O)NC(=O)OCCCCCC (cyclo(ALPPF[Arg(ω,ω'-(C6H13OCO)2)]GDL))
log D (1-octanol / PBS pH 7.4) [1]: >4.5 log units

COC(=O)Nc1nc2cc(C(=O)c3ccccc3)ccc2[nH]1
log D (1-octanol / PBS pH 7.4) [1]: 3.04 log units

CCCCCCOC(=O)N=C(NCCC[C@@H]1NC(=O)[C@@H](C(C)C)N(C)C(=O)[C@H](C)N(C)C(=O)[C@H](C)NC(=O)[C@H](CC(=O)OC)NC(=O)CNC1=O)NC(=O)OCCCCCC
log D (1-octanol / PBS pH 7.4) [1]: 4.86 log units

B1: peptide 5, c(*rGDA*AA) (peptide)
peptide: cyclo([dNMeR]GDA[NMeA]A)
notes: NMe(1,5) scaffold cyclic hexapeptide
IC50 [2]: 25 nM
IC50 [3]: 13 nM
IC50 [4]: 170 nM

B2: peptide 32, c(*rGDA*AV) (peptide)
peptide: cyclo([dNMeR]GDA[NMeA]V)
notes: as for B1
IC50 [2]: 3.8 nM
IC50 [3]: 5.6 nM

B3: peptide 33, c(*rGDA*AF) (peptide)
peptide: cyclo([dNMeR]GDA[NMeA]F)
notes: as for B1
IC50 [2]: 25 nM
IC50 [3]: 4.4 nM

B4: peptide 12, c(*aRGDA*A) (peptide)
peptide: cyclo([dNMeA]RGDA[NMeA])
notes: NMe(1,6) scaffold cyclic hexapeptide; also called the drug
IC50 [2]: 770 nM
IC50 [3]: 4.8 nM
IC50 [4]: 1500 nM

B5: peptide 17, c(rG*DA*AA) (peptide)
peptide: cyclo([dR]G[NMeD]A[NMeA]A)
notes: NMe(3,5) scaffold cyclic hexapeptide
IC50 [3]: 2350 nM

B6: peptide 23, c(rGDA*A*A) (peptide)
peptide: cyclo([dR]GDA[NMeA][NMeA])
notes: NMe(5,6) scaffold cyclic hexapeptide
IC50 [2]: 130 nM
IC50 [3]: 73 nM

B7: linear peptide RTDLDSLRT (peptide)
peptide: RTDLDSLRT
notes: Internal standard for αvβ6 and αvβ8
IC50 [5]: 8 to 100 nM
IC50 [6]: 6 to 33 nM
